Data as given in the supplement of paper PMC12458215.
± gives the uncertainty stated by the source.

Test system: HEK293T
Test: plasma membrane surface immunostaining intensity (anti-HA, deep receptor scanning) (arbitrary fluorescence units); higher = higher plasma membrane expression

Row | Sequence | plasma membrane surface immunostaining intensity (GPCR class: A) | further results
1 | MAGVVHVSLAALLLLPMAPAMHSDCIFKKEQAMCLEKIQRANELMGFNDSSPGCPGMWDNITCWKPAHVGEMVLVSCPELFRIFNPDQVWETETIGESDFGDSNSLDLSDMGVVSRNCTEDGWSEPFPHYFDACGFDEYESETGDQDYYYLSVKALYTVGYSTSLVTLTTAMVILCRFRKLHCTRNFIHMNLFVSFMLRAISVFIKDWILYAEQDSNHCFISTVECKAVMVFFHYCVVSNYFWLFIEGLYLFTLLVETFFPERRYFYWYTIIGWGTPTVCVTVWATLRLYFDDTGCWDMNDSTALWWVIKGPVVGSIMVNFVLFIGIIVILVQKLQSPDMGGNESSIYLRLARSTLLLIPLFGIHYTVFAFSPENVSKRERLVFELGLGSFQGFVVAVLYCFLNGEVQAEIKRKWRSWKVNRYFAVDFKHRHPSLASSGVNGGTQLSILSKSSSQIRMSGLPADNLAT [ADCYAP1R1] | – | plasma membrane surface immunostaining intensity (GPCR class: B): 6416 ± 29
2 | MNTSAPPAVSPNITVLAPGKGPWQVAFIGITTGLLSLATVTGNLLVLISFKVNTELKTVNNYFLLSLACADLIIGTFSMNLYTTYLLMGHWALGTLACDLWLALDYVASNASVMNLLLISFDRYFSVTRPLSYRAKRTPRRAALMIGLAWLVSFVLWAPAILFWQYLVGERTVLAGQCYIQFLSQPIITFGTAMAAFYLPVTVMCTLYWRIYRETENRARELAALQGSETPGKGGGSSSSSERSQPGAEGSPETPPGRCCRCCRAPRLLQAYSWKEEEEEDEGSMESLTSSEGEEPGSEVVIKMPMVDPEAQAPTKQPPRSSPNTVKRPTKKGRDRAGKGQKPRGKEQLAKRKTFSLVKEKKAARTLSAILLAFILTWTPYNIMVLVSTFCKDCVPETLWELGYWLCYVNSTINPMCYALCNKAFRDTFRLLLLCRWDKRRWRKIPKRPGSVHRTPSRQC [CHRM1] | 2530 ± 130 | –
3 | MANYTLAPEDEYDVLIEGELESDEAEQCDKYDAQALSAQLVPSLCSAVFVIGVLDNLLVVLILVKYKGLKRVENIYLLNLAVSNLCFLLTLPFWAHAGGDPMCKILIGLYFVGLYSETFFNCLLTVQRYLVFLHKGNFFSARRRVPCGIITSVLAWVTAILATLPEFVVYKPQMEDQKYKCAFSRTPFLPADETFWKHFLTLKMNISVLVLPLFIFTFLYVQMRKTLRFREQRYSLFKLVFAIMVVFLLMWAPYNIAFFLSTFKEHFSLSDCKSSYNLDKSVHITKLIATTHCCINPLLYAFLDGTFSKYLCRCFHLRSNTPLQPRGQSAQGTSREEPDHSTEV [CCRL2] | 569 ± 46 | –
4 | MSGTNQSSVSEFLLLGLSRQPQQQHLLFVFFLSMYLATVLGNLLIILSVSIDSCLHTPMYFFLSNLSFVDICFSFTTVPKMLANHILETQTISFCGCLTQMYFVFMFVDMDNFLLAVMAYDHFVAVCHPLHYTAKMTHQLCALLVAGLWVVANLNVLLHTLLMAPLSFCADNAITHFFCDVTPLLKLSCSDTHLNEVIILSEGALVMITPFLCILASYMHITCTVLKVPSTKGRWKAFSTCGSHLAVVLLFYSTIIAVYFNPLSSHSAEKDTMATVLYTVVTPMLNPFIYSLRNRYLKGALKKVVGRVVFSV [OR1F1] | – | plasma membrane surface immunostaining intensity (GPCR class: A (Olfactory)): 278 ± 120
5 | MSANATLKPLCPILEQMSRLQSHSNTSIRYIDHAAVLLHGLASLLGLVENGVILFVVGCRMRQTVVTTWVLHLALSDLLASASLPFFTYFLAVGHSWELGTTFCKLHSSIFFLNMFASGFLLSAISLDRCLQVVRPVWAQNHRTVAAAHKVCLVLWALAVLNTVPYFVFRDTISRLDGRIMCYYNVLLLNPGPDRDATCNSRQVALAVSKFLLAFLVPLAIIASSHAAVSLRLQHRGRRRPGRFVRLVAAVVAAFALCWGPYHVFSLLEARAHANPGLRPLVWRGLPFVTSLAFFNSVANPVLYVLTCPDMLRKLRRSLRTVLESVLVDDSELGGAGSSRRRRTSSTARSASPLALCSRPEEPRGPARLLGWLLGSCAASPQTGPLNRALSSTSS [PTGDR2] | 6413 ± 49 | –
6 | MDAALLHSLLEANCSLALAEELLLDGWGPPLDPEGPYSYCNTTLDQIGTCWPRSAAGALVERPCPEYFNGVKYNTTRNAYRECLENGTWASKINYSQCEPILDDKQRKYDLHYRIALVVNYLGHCVSVAALVAAFLLFLALRSIRCLRNVIHWNLITTFILRNVMWFLLQLVDHEVHESNEVWCRCITTIFNYFVVTNFFWMFVEGCYLHTAIVMTYSTERLRKCLFLFIGWCIPFPIIVAWAIGKLYYENEQCWFGKEPGDLVDYIYQGPIILVLLINFVFLFNIVRILMTKLRASTTSETIQYRKAVKATLVLLPLLGITYMLFFVNPGEDDLSQIMFIYFNSFLQSFQGFFVSVFYCFFNGEVRSAVRKRWHRWQDHHSLRVPMARAMSIPTSPTRISFHSIKQTAAV [CRHR2] | – | plasma membrane surface immunostaining intensity (GPCR class: B): 2380 ± 560
7 | MALLLVSLLAFLSLGSGCHHRICHCSNRVFLCQESKVTEIPSDLPRNAIELRFVLTKLRVIQKGAFSGFGDLEKIEISQNDVLEVIEADVFSNLPKLHEIRIEKANNLLYINPEAFQNLPNLQYLLISNTGIKHLPDVHKIHSLQKVLLDIQDNINIHTIERNSFVGLSFESVILWLNKNGIQEIHNCAFNGTQLDELNLSDNNNLEELPNDVFHGASGPVILDISRTRIHSLPSYGLENLKKLRARSTYNLKKLPTLEKLVALMEASLTYPSHCCAFANWRRQISELHPICNKSILRQEVDYMTQARGQRSSLAEDNESSYSRGFDMTYTEFDYDLCNEVVDVTCSPKPDAFNPCEDIMGYNILRVLIWFISILAITGNIIVLVILTTSQYKLTVPRFLMCNLAFADLCIGIYLLLIASVDIHTKSQYHNYAIDWQTGAGCDAAGFFTVFASELSVYTLTAITLERWHTITHAMQLDCKVQLRHAASVMVMGWIFAFAAALFPIFGISSYMKVSICLPMDIDSPLSQLYVMSLLVLNVLAFVVICGCYIHIYLTVRNPNIVSSSSDTRIAKRMAMLIFTDFLCMAPISFFAISASLKVPLITVSKAKILLVLFHPINSCANPFLYAIFTKNFRRDFFILLSKCGCYEMQAQIYRTETSSTVHNTHPRNGHCSSAPRVTSGSTYILVPLSHLAQN [FSHR] | 378 ± 44 | –
8 | MKSILDGLADTTFRTITTDLLYVGSNDIQYEDIKGDMASKLGYFPQKFPLTSFRGSPFQEKMTAGDNPQLVPADQVNITEFYNKSLSSFKENEENIQCGENFMDIECFMVLNPSQQLAIAVLSLTLGTFTVLENLLVLCVILHSRSLRCRPSYHFIGSLAVADLLGSVIFVYSFIDFHVFHRKDSRNVFLFKLGGVTASFTASVGSLFLTAIDRYISIHRPLAYKRIVTRPKAVVAFCLMWTIAIVIAVLPLLGWNCEKLQSVCSDIFPHIDETYLMFWIGVTSVLLLFIVYAYMYILWKAHSHAVRMIQRGTQKSIIIHTSEDGKVQVTRPDQARMDIRLAKTLVLILVVLIICWGPLLAIMVYDVFGKMNKLIKTVFAFCSMLCLLNSTVNPIIYALRSKDLRHAFRSMFPSCEGTAQPLDNSMGDSDCLHKHANNAASVHRAAESCIKSTVKIAKVTMSVSTDTSAEAL [CNR1] | 130 ± 25 | –
9 | MAQQWSLQRLAGRHPQDSYEDSTQSSIFTYTNSNSTRGPFEGPNYHIAPRWVYHLTSVWMIFVVTASVFTNGLVLAATMKFKKLRHPLNWILVNLAVADLAETVIASTISIVNQVSGYFVLGHPMCVLEGYTVSLCGITGLWSLAIISWERWMVVCKPFGNVRFDAKLAIVGIAFSWIWAAVWTAPPIFGWSRYWPHGLKTSCGPDVFSGSSYPGVQSYMIVLMVTCCIIPLAIIMLCYLQVWLAIRAVAKQQKESESTQKAEKEVTRMVVVMIFAYCVCWGPYTFFACFAAANPGYAFHPLMAALPAYFAKSATIYNPVIYVFMNRQFRNCILQLFGKKVDDGSELSSASKTEVSSVSSVSPA [OPN1LW] | 261 ± 14 | –
10 | MADAQNISLDSPGSVGAVAVPVVFALIFLLGTVGNGLVLAVLLQPGPSAWQEPGSTTDLFILNLAVADLCFILCCVPFQATIYTLDAWLFGALVCKAVHLLIYLTMYASSFTLAAVSVDRYLAVRHPLRSRALRTPRNARAAVGLVWLLAALFSAPYLSYYGTVRYGALELCVPAWEDARRRALDVATFAAGYLLPVAVVSLAYGRTLRFLWAAVGPAGAAAAEARRRATGRAGRAMLAVAALYALCWGPHHALILCFWYGRFAFSPATYACRLASHCLAYANSCLNPLVYALASRHFRARFRRLWPCGRRRRHRARRALRRVRPASSGPPGCPGDARPSGRLLAGGGQGPEPREGPVHGGEAARGPE [GALR3] | 2680 ± 290 | –
11 | MFGLFGLWRTFDSVVFYLTLIVGLGGPVGNGLVLWNLGFRIKKGPFSIYLLHLAAADFLFLSCRVGFSVAQAALGAQDTLYFVLTFLWFAVGLWLLAAFSVERCLSDLFPACYQGCRPRHASAVLCALVWTPTLPAVPLPANACGLLRNSACPLVCPRYHVASVTWFLVLARVAWTAGVVLFVWVTCCSTRPRPRLYGIVLGALLLLFFCGLPSVFYWSLQPLLNFLLPVFSPLATLLACVNSSSKPLIYSGLGRQPGKREPLRSVLRRALGEGAELGARGQSLPMGLL [MRGPRG] | 115 ± 15 | –
12 | MTAAIRRQRELSILPKVTLEAMNTTVMQGFNRSERCPRDTRIVQLVFPALYTVVFLTGILLNTLALWVFVHIPSSSTFIIYLKNTLVADLIMTLMLPFKILSDSHLAPWQLRAFVCRFSSVIFYETMYVGIVLLGLIAFDRFLKIIRPLRNIFLKKPVFAKTVSIFIWFFLFFISLPNTILSNKEATPSSVKKCASLKGPLGLKWHQMVNNICQFIFWTVFILMLVFYVVIAKKVYDSYRKSKSKDRKNNKKLEGKVFVVVAVFFVCFAPFHFARVPYTHSQTNNKTDCRLQNQLFIAKETTLFLAATNICMDPLIYIFLCKKFTEKLPCMQGRKTTASSQENHSSQTDNITLG [P2RY13] | 239 ± 12 | –
13 | MQRPGPRLWLVLQVMGSCAAISSMDMERPGDGKCQPIEIPMCKDIGYNMTRMPNLMGHENQREAAIQLHEFAPLVEYGCHGHLRFFLCSLYAPMCTEQVSTPIPACRVMCEQARLKCSPIMEQFNFKWPDSLDCRKLPNKNDPNYLCMEAPNNGSDEPTRGSGLFPPLFRPQRPHSAQEHPLKDGGPGRGGCDNPGKFHHVEKSASCAPLCTPGVDVYWSREDKRFAVVWLAIWAVLCFFSSAFTVLTFLIDPARFRYPERPIIFLSMCYCVYSVGYLIRLFAGAESIACDRDSGQLYVIQEGLESTGCTLVFLVLYYFGMASSLWWVVLTLTWFLAAGKKWGHEAIEANSSYFHLAAWAIPAVKTILILVMRRVAGDELTGVCYVGSMDVNALTGFVLIPLACYLVIGTSFILSGFVALFHIRRVMKTGGENTDKLEKLMVRIGLFSVLYTVPATCVIACYFYERLNMDYWKILAAQHKCKMNNQTKTLDCLMAASIPAVEIFMVKIFMLLVVGITSGMWIWTSKTLQSWQQVCSRRLKKKSRRKPASVITSGGIYKKAQHPQKTHHGKYEIPAQSPTCV [FZD10] | – | plasma membrane surface immunostaining intensity (GPCR class: F): 2420 ± 580
14 | MAEENHTMKNEFILTGFTDHPELKTLLFVVFFAIYLITVVGNISLVALIFTHRRLHTPMYIFLGNLALVDSCCACAITPKMLENFFSENKRISLYECAVQFYFLCTVETADCFLLAAMAYDRYVAICNPLQYHIMMSKKLCIQMTTGAFIAGNLHSMIHVGLVFRLVFCGSNHINHFYCDILPLYRLSCVDPYINELVLFIFSGSVQVFTIGSVLISYLYILLTIFKMKSKEGRAKAFSTCASHFLSVSLFYGSLFFMYVRPNLLEEGDKDIPAAILFTIVVPLLNPFIYSLRNREVISVLRKILMKK [OR5K1] | – | plasma membrane surface immunostaining intensity (GPCR class: A (Olfactory)): 194 ± 62
15 | MSYFYRLKLMKEAVLVKLPFTSLPLLLQTLSRKSRDMEIKNYSSSTSGFILLGLSSNPQLQKPLFAIFLIMYLLAAVGNVLIIPAIYSDPRLHTPMYFFLSNLSFMDICFTTVIVPKMLVNFLSETKVISYVGCLAQMYFFMAFGNTDSYLLASMAIDRLVAICNPLHYDVVMKPRHCLLMLLGSCSISHLHSLFRVLLMSRLSFCASHIIKHFFCDTQPVLKLSCSDTSSSQMVVMTETLAVIVTPFLCIIFSYLRIMVTVLRIPSAAGKWKAFSTCGSHLTAVALFYGSIIYVYFRPLSMYSVVRDRVATVMYTVVTPMLNPFIYSLRNKDMKRGLKKLQDRIYR [OR1L6] | – | plasma membrane surface immunostaining intensity (GPCR class: A (Olfactory)): 247 ± 87
